Reference: article PMC9275567

What was measured:
[1] = molecular target: RNA polymerase II (RNA Pol II) (human (endogenous in HeLa-Kyoto)) (UniProt P24928); assay: cross-linking + co-IP
[2] = molecular target: FUsed in Sarcoma (FUS) in HeLa-Kyoto cells (human (endogenous in HeLa-Kyoto)) (UniProt P35637); assay: cross-linking + co-IP

| Substance | percent of cellular FUS cross-linked to RNA Pol II [1] [%] | percent of RNA Pol II cross-linked to FUS (large particles, >70 nm) [2] [%] | percent of RNA Pol II cross-linked to FUS (whole cell lysate) [2] [%] |
| --- | --- | --- | --- |
| FUsed in Sarcoma (FUS) in HeLa-Kyoto cells (from UniProt P35637 1-526) (natural protein) | 21 |  |  |
| RNA polymerase II (RNA Pol II) (from UniProt P24928 1-1970) (complex) |  | 69 | 87 |
